We go through 1 substance from patent US5856125.

This data set deals with T1, ERF (Homo sapiens) (UniProt P50548).
T1 sequence: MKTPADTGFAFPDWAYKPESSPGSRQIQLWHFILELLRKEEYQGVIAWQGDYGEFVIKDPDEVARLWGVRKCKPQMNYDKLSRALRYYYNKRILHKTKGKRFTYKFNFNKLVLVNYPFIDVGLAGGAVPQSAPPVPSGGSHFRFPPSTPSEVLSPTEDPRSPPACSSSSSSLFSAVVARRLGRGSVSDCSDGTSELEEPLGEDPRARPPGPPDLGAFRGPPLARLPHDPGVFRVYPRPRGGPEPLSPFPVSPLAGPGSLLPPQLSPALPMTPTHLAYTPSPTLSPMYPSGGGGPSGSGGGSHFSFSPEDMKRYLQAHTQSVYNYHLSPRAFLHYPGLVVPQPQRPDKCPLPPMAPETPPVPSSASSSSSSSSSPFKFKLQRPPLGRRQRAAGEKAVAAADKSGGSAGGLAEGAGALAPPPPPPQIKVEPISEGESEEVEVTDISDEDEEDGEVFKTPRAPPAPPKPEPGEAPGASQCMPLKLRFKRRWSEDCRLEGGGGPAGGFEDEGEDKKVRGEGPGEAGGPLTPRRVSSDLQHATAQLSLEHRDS
Nature of the data set: cell_activity. The following applies: HeLa CAT reporter; values over 30 set to 30.

ETS2 promoter -394 to +125: the activity (fold repression) was more than 30.
